Test results published in IntAct's records for PubMed 18323775.

B1: Zinc finger protein-like 1 (Mus musculus), Q9DB43 (parent)
chain: MGLCKCPKRKVTNLFCFEHRVNVCEHCLVANHAKCIVQSYLQWLQDSDYNPNCRLCNTPLASRETTRLVCYDLFHWACINERAAQLPRNTAPAGYQCPSCNGPIFPPANLAGPVASALREKLATVNWARAGLGLPLIDEVISPEPEPLNSSDFSDWSSFNATTTSVQEERASTPSAPAFYSQAPRPPPSPSRPEQHTVIHMGSTEALAHAPRKVYDTRDDDRTAGIHGDCDDDKYRRRPALGWLAQLLRSRAGSRKRPLTLLQRAGLLLLLGLLGFLALLALMSRLGRAAADSDPNLDPLMNPHIRVGPS
partner: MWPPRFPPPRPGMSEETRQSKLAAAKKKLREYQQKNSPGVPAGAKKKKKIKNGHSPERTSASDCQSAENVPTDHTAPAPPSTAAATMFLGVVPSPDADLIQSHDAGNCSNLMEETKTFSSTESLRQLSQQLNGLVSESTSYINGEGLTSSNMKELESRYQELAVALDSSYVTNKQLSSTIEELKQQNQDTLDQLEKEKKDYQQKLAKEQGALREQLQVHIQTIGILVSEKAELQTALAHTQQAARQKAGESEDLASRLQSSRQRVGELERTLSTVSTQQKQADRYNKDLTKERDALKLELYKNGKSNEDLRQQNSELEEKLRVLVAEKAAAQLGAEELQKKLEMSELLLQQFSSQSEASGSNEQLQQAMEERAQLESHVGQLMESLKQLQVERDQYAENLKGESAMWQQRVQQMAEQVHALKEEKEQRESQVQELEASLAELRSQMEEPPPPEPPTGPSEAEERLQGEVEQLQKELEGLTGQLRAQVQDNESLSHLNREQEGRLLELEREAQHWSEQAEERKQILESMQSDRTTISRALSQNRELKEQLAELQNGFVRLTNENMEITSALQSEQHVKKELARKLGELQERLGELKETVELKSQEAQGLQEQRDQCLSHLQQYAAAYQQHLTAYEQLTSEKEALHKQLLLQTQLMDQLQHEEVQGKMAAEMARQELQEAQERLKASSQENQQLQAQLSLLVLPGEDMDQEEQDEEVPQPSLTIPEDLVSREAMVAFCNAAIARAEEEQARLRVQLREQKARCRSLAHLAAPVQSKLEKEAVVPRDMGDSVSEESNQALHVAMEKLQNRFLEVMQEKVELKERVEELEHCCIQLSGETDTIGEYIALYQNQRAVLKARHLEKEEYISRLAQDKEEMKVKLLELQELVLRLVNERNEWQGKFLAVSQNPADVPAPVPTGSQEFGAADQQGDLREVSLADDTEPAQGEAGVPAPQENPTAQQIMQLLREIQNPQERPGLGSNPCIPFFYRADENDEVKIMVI

Variants of: B1
Details: with goga2_rat Golga2, Q62839

| Variant | effect of a mutation on the interaction |
| --- | --- |
| C53A | decreasing interaction |

Variants of: B1
Details: with goga2_rat Golga2, Q62839
Remark: another data set of the same source

| Variant | effect of a mutation on the interaction |
| --- | --- |
| C27A | decreasing interaction |

Variants of: B1
Details: with goga2_rat Golga2, Q62839
Remark: another data set of the same source

| Variant | effect of a mutation on the interaction |
| --- | --- |
| C27A | disrupting interaction |

Variants of: B1
Details: with goga2_rat Golga2, Q62839
Remark: another data set of the same source

| Variant | effect of a mutation on the interaction |
| --- | --- |
| C6A | disrupting interaction |
